# In patent US20050037949A1, “Mannose binding lectin and uses thereof” (priority 2002, published 2005):
# Like-named read-outs stand apart in the source and are kept apart here.
# Assays:
# [1] = target: MBL associated serine protease 2 (MASP2) (human) (UniProt O00187); assay: cell-based or functional assay
# [2] = target: MBL associated serine protease 2 (MASP2) (human) (UniProt O00187); assay: cell-based or functional assay; remark: listed apart in the source
# Sequence of affinity purified MBL-MASP complex (P11226 21-248, one chain of several): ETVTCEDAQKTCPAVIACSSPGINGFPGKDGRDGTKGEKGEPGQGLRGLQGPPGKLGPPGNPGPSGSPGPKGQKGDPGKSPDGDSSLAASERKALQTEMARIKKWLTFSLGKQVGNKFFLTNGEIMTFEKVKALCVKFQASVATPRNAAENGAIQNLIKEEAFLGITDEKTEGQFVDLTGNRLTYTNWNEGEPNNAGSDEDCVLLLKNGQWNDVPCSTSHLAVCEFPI
# Sequence of MBL associated serine protease 2 (MASP2) (human) (O00187 16-686 limits assumed): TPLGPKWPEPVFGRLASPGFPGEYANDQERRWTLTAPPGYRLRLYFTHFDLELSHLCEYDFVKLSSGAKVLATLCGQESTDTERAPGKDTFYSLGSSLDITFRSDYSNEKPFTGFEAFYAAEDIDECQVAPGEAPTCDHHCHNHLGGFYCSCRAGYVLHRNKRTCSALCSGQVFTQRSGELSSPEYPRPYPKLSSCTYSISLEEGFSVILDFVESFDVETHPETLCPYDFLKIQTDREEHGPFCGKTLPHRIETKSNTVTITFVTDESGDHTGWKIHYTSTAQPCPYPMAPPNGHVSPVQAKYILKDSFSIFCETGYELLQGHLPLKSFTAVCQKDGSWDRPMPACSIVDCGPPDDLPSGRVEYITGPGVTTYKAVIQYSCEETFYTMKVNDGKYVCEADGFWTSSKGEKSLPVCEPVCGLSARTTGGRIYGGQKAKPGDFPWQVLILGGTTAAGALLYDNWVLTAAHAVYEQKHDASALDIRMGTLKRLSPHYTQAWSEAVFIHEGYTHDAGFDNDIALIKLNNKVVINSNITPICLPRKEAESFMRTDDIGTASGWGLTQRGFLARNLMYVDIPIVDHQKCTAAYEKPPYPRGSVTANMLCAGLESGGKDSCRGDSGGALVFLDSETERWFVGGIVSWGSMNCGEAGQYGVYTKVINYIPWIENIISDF
substance,measurement,setting,value
affinity purified MBL-MASP complex (from UniProt P11226 21-248),C4 deposition at MBL 0.624 ug/mL,[1],0.05 U/ul
same,C4 deposition at MBL 1.032 ug/mL,[1],0.068 U/ul
same,C4 deposition at MBL 2.081 ug/mL,[1],0.103 U/ul
same,C4 deposition at MBL 3.3 ug/mL,[1],0.197 U/ul
same,C4 deposition at MBL 4.08 ug/mL,[1],0.138 U/ul
same,C4 deposition at MBL 4.42 ug/mL,[1],0.168 U/ul
same,C4 deposition at MBL 5.95 ug/mL,[1],0.172 U/ul
same,C4 deposition at MBL 6.94 ug/mL,[1],0.197 U/ul
same,C4 deposition at MBL 11.41 ug/mL,[1],0.204 U/ul
same,C4 deposition at MBL 15 ug/mL,[1],0.246 U/ul
same,"C4 deposition at MBL 25 µg/mL (previous assay, same batch)",[1],0.27 U/µl
same,C4 deposition at MBL 40 ug/mL,[1],0.321 U/ul
same,C4 deposition at MBL 50 ug/mL,[1],0.289 U/ul
same,C4 deposition at MBL 0.471 ug/mL,[2],0.054 U/ul
same,C4 deposition at MBL 1.065 ug/mL,[2],0.057 U/ul
same,C4 deposition at MBL 2.237 ug/mL,[2],0.104 U/ul
same,C4 deposition at MBL 2.802 ug/mL,[2],0.114 U/ul
same,C4 deposition at MBL 4.011 ug/mL,[2],0.138 U/ul
same,C4 deposition at MBL 4.681 ug/mL,[2],0.171 U/ul
same,C4 deposition at MBL 5.382 ug/mL,[2],0.159 U/ul
same,C4 deposition at MBL 6.814 ug/mL,[2],0.19 U/ul
same,C4 deposition at MBL 7.967 ug/mL,[2],0.203 U/ul
same,C4 deposition at MBL 10.998 ug/mL,[2],0.22 U/ul
same,C4 deposition at MBL 40 ug/mL,[2],0.292 U/ul
same,C4 deposition at MBL 50 ug/mL,[2],0.308 U/ul
